Data on 129 substances can be found in the supplement of paper PMC12042874.

± gives the uncertainty stated by the source.

This data set in a line: amyloid nucleation score (Sup35N fusion, yeast selection) (log enrichment); library NNK3; higher = more nucleation; inactive = no reads after selection. The method, boiled down: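 The nucleation score is the log enrichment of output over input reads, calculated with DiMSum and centred on the mode score of non-aggregating sequences. Sequences with under 100 input reads were excluded. Reads came from Illumina sequencing of plasmid inserts from psi-negative yeast expressing Sup35N fused to peptides of 20 random codons, induced 24 hours with 100 μM copper sulfate and grown 7 days at 30°C without adenine and uracil.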
Take SYRHCNWDAKKVAIGTVVWD: the amyloid nucleation score result is “inactive”.

In the case of DIQNFHQKTKGCLLFVWRRQ, the amyloid nucleation score entry is “inactive”.

For FSDNSSRSGSNSEWYGS, the amyloid nucleation score result is “inactive”. Take RLCSFTRYLNGATSANNVKL: the amyloid nucleation score result is “inactive”.

For the substance LSWIASSGKGWSTTMCISTM, the amyloid nucleation score entry was “inactive”. The same measure for SPLTARMADRRDTA: -0.134 ± 1.4. In the case of DSDYGNVVWRFYRSYGCTGL it was “inactive”. Regarding NRMRPIDNLGHISMFGVLGG, the amyloid nucleation score result was “inactive”. MCSETWIYALSICDNLCRD registered an amyloid nucleation score of 1.29 ± 0.16. The same measure for RIPTLIFRLILIMFHDFDFQ: “inactive”; for DCKLVDIDSLLVTFDR: “inactive”. With GRIVMHVICNIFNCNYFGNS, the amyloid nucleation score was 2.94 ± 0.072.

Turning to KVGAGIDIISFIRNLILALP, the amyloid nucleation score entry is “inactive”. In the case of KGYRINSNFNKFNKPLCSAI it was “inactive”. As for RGSGWRTYVCTGSYALRV, the amyloid nucleation score result was “inactive”. On to DGDFIWISYVRKPKVNNDMF, for which the amyloid nucleation score result was “inactive”.

For QGLSRIRTKQGLAWIGLYTV, the amyloid nucleation score entry is “inactive”. With LFLKFDNSSWLMLKVMDTNI, the amyloid nucleation score amounted to 0.961 ± 0.19.

Turning to PEMFGRSWARDTRKVTVLAS, the amyloid nucleation score entry was “inactive”. On to SRLEGIAGVKKGVMVNQKRL, for which the amyloid nucleation score result is “inactive”. As to YPWGEGNGYTCGV, the amyloid nucleation score entry is “inactive”. In the case of MQICSCYRFSD it was 2.45 ± 0.071. As to STHGWGGWLSVYIGNP, the amyloid nucleation score entry is “inactive”. With WTNIRFAF, the amyloid nucleation score result was “inactive”. TMMACEANWYRSKNIEFVYA: the amyloid nucleation score result was “inactive”. SGCRLLVVECPASCCWDITT: the amyloid nucleation score result is “inactive”.

As to SWVHGERLMHDCQTLLLYSW, the amyloid nucleation score entry is “inactive”. Turning to RTRCAPLDMVEL, the amyloid nucleation score entry was “inactive”.

Turning to FNYRFSLSHKNGFTRVNYGL, the amyloid nucleation score result was “inactive”.

LFSVMSKYSFRWLRDNFCHA: the amyloid nucleation score result was “inactive”. Consider GRYLSANLVVKSGCR, for which the amyloid nucleation score result is “inactive”. As to FIMLQSPTNSSQILMPTQFT, the amyloid nucleation score result is “inactive”. Consider FSDVGLWFGAYRKVVVVKLF, for which the amyloid nucleation score entry was “inactive”. With GLFRGYGVTLVRRLWSRIMY, the amyloid nucleation score result is “inactive”. Consider WTMSKLNGRCTSCPHLARLS, for which the amyloid nucleation score entry is “inactive”. In turn, RPRFWICMSYMEQSSDNRRT showed an amyloid nucleation score of 1.37 ± 0.084. On to MCRLDA, for which the amyloid nucleation score was found to be 2.38 ± 0.073.

For PIFWR, the amyloid nucleation score result was “inactive”.

For the substance VYTRSGHV, the amyloid nucleation score is -0.112 ± 1.3. For the substance VSNYTSRNNYVNCQLELTRA, the amyloid nucleation score result is “inactive”. On to VSFYIVKSLEEAGVSR, for which the amyloid nucleation score amounted to 1.36 ± 0.15. Consider LIRMFISVMSYCMTVGLGMG, for which the amyloid nucleation score result was “inactive”. Turning to NGFIILADCQMVCLRTSDLM, the amyloid nucleation score was determined as 1.77 ± 0.065. Turning to FGGLRTATL, the amyloid nucleation score entry was “inactive”. The same measure for IVDCLFK: “inactive”; for GYVVQIMFYILVVHTTWSSA: -0.451 ± 0.98; for VNGNVDKFQKSKSLGTFVTT: “inactive”.

Regarding SKRVIVWVTSLYWDV, the amyloid nucleation score result is “inactive”.

For HKSVLFNTRSSCRTSVLIVR, the amyloid nucleation score entry is “inactive”. As for SLMNPNFFLHMVIRTNCYLK, the amyloid nucleation score result is “inactive”. On to EVFGVIDDNYFCR, for which the amyloid nucleation score entry is “inactive”.

With DRAGHGSV, the amyloid nucleation score result is “inactive”. With VPVVYGSCCKHRGICMYVL, the amyloid nucleation score entry is “inactive”. Turning to WELMCKALGRGRRCWYKCFL, the amyloid nucleation score result is “inactive”. Regarding FRYVIVYKRSSFGYRKCIEC, the amyloid nucleation score result was “inactive”. In the case of LCTLMCTQFNYFVSETWLVP it was 2.25 ± 0.093; in that of AYVRLKRCWDTFWLRI, “inactive”.

Turning to MFRDIWLFGPISWIYECCRS, the amyloid nucleation score amounted to 2.36 ± 0.091.

For EVFARIVPRDMMLFLILIIP, the amyloid nucleation score entry is “inactive”. Take LFSSVC: the amyloid nucleation score result was “inactive”. For LYSPYLGCDNGATQFWSGTT, the amyloid nucleation score is 0.226 ± 0.88. With DDVTHISLKKNSDNLGYNSR, the amyloid nucleation score result is “inactive”.

As to PMMWSVVVYNTNIYGLVCAM, the amyloid nucleation score came to 1.26 ± 0.08. Turning to YGGFLKFSRYGIGRYIHLQL, the amyloid nucleation score result is “inactive”. With STSSLASNYRDFSIR, the amyloid nucleation score result is “inactive”.

For the substance YWVTLFRSARVWMITLNLFD, the amyloid nucleation score result was “inactive”. Take YIINARPYVVVTDGLKDETA: the amyloid nucleation score result was “inactive”. As to NLDLGVDLGMQPIGSIKKST, the amyloid nucleation score result is “inactive”. In the case of FNSYHTANRYI, the amyloid nucleation score result was “inactive”. Turning to YSGKYVCAVGF, the amyloid nucleation score entry is “inactive”. The same measure for RDYKLVRHHSHKDVLSCILW: “inactive”; for KLMVNNQFISISINMSRCLF: 1.63 ± 0.098; for SKCDMCTYTQRFNDL: “inactive”. The same measure for SMLAPCHELEHMGRCGECSN: “inactive”; for TCLVSNYVAYIWGNEFFAAS: 2.19 ± 0.053.

For YIARCVVTSLVLNKTCMRIY, the amyloid nucleation score result is “inactive”. Consider KSTICACTLIMVNTPFMLSM, for which the amyloid nucleation score stood at 1.36 ± 0.11. In the case of FNDSLSLTVTRVIF it was “inactive”.

Regarding VVCLFDVKFESARVLDLLSV, the amyloid nucleation score result is “inactive”.

For PSLCFSAVQLRLPRDVFLKY, the amyloid nucleation score result was “inactive”.

In the case of TISFGMMHLAIDWVIVN, the amyloid nucleation score entry was “inactive”. With VIVYQKSMLHLGCSLGIAFW, the amyloid nucleation score result is “inactive”. In the case of FRSFIGKNHEKRSVILCILE it was “inactive”. The same measure for LVYNATYCSSMHHSGS: “inactive”; for RTLAIRYSSNPLTIRLLQSL: “inactive”; for MRVLGLGEAWDDNGLRRLRA: “inactive”. Take FHSGMHCMKDFDCLPGFVGR: the amyloid nucleation score result is “inactive”. The substance TIFFMYWLSPGFSPPI displayed an amyloid nucleation score of 0.148 ± 0.39. Regarding KERCLVSHCTTLCALFLRVI, the amyloid nucleation score result is “inactive”. Turning to APKCNSTMCSCALMTLFLIS, the amyloid nucleation score amounted to 2.14 ± 0.085. In the case of EAPRFCSRAMDYVILQGWTL, the amyloid nucleation score result was “inactive”. The same measure for HSSNWCSVVITLCCTLRKDY: 0.748 ± 0.19; for YGKQVLWN: “inactive”; for AVLGLMLPCFRARRAWIAPP: -0.22 ± 1.5. Regarding VFVQTLILWVHSRIAALQDS, the amyloid nucleation score entry was “inactive”. In the case of GSGTGNALLQLGLTSIFTFS, the amyloid nucleation score result was “inactive”. Turning to WSDLRI, the amyloid nucleation score entry is “inactive”. The same measure for TVLYFA: “inactive”; for IWNSRSSCPECALATLETWA: “inactive”. Take CVGMEVCGWEGS: the amyloid nucleation score result is “inactive”. The same measure for LYFILLAHLFSCNNPVSKDP: 1.4 ± 0.13; for KMSLGLRCYSAYKEPLVQGE: -0.055 ± 1.1.

As for SRLCARMSSGKTIGYCNLFL, the amyloid nucleation score entry is “inactive”. Regarding LVDLGFMRRCSQSRLQDFCF, the amyloid nucleation score came out at 0.832 ± 0.24. As for VFSRKKYRHPWMYAVTFGYC, the amyloid nucleation score result was “inactive”. In the case of HLNLTHNWNVYGKDLNGQFF it was 2.13 ± 0.072. For the substance VYPWFA, the amyloid nucleation score entry is “inactive”. Consider MRCQNSCRHS, for which the amyloid nucleation score entry is “inactive”. In the case of CMRLLTWIKPNWLLLVCLKT, the amyloid nucleation score result was “inactive”.

As to VIALVSGEYSWFRILCTPFY, the amyloid nucleation score result is “inactive”. Turning to MNSVHYNDHPHDAVKFTISI, the amyloid nucleation score entry is “inactive”. On to PLRSTKSIIVLMDEMRLIAN, for which the amyloid nucleation score result is “inactive”. In the case of MAWGLVNMRMSLSAKYQGAL, the amyloid nucleation score result was “inactive”. With HIVKKFPSPMRITWCGSPFQ, the amyloid nucleation score entry is “inactive”. In the case of CKARTSASSNQHRESVYGLE, the amyloid nucleation score result is “inactive”. In the case of MGTVVTMSMRLSNSVWGVGH, the amyloid nucleation score was found to be 1.28 ± 0.14.

For the substance MMFVGYLSCFSS, the amyloid nucleation score is 2.38 ± 0.059. Regarding GVTLFSVVQTFLVSTLCKIE, the amyloid nucleation score result is “inactive”.

For the substance IAVCTRAMASNRLGFQYRNG, the amyloid nucleation score entry was “inactive”. LWGYDNDVNCCTMALNVHGV: the amyloid nucleation score turned out to be 0.503 ± 0.3. On to FPMCFSFHLIGQ, for which the amyloid nucleation score entry is “inactive”. As to HPRELYTFKKSWFLGRDS, the amyloid nucleation score result is “inactive”. Regarding GQKCHLGCAFGCDEYTWAKG, the amyloid nucleation score entry was “inactive”. As to KMTGLWLNVAVSDAFLEYDE, the amyloid nucleation score is 1.46 ± 0.13.

On to QHMFQAWFTVNKFSRGECGF, for which the amyloid nucleation score result is “inactive”. IIHGHHWFGYNSRLCC: the amyloid nucleation score result is “inactive”. Turning to YIGFGGDCSVSAFVTCQLGF, the amyloid nucleation score result was “inactive”.

Regarding SYNFRDCYQCLRDKVDKICA, the amyloid nucleation score result was “inactive”. Substance DAFYIFWLDTSWFRWYAGTS had an amyloid nucleation score of -0.131 ± 0.61.
